One block for each binder: values may come before it.
Experiments:
[1] = molecular target: T1, HuCTLA4-HuIgG1 (fusion protein of the extracellular part of human CD152 and human Fc gamma 1, CTLA4-Ig) (human, UniProt P16410 36-161); test: SPR, Biacore T100, CTLA4-Ig amine-coupled
T1 construct: extracellular domain; also called CTLA4-hFc; CTLA4-Fc; not shown: human Fc gamma 1

[2] = molecular target: T1, HuCTLA4-HuIgG1 (fusion protein of the …); test: alphascreen; competitor biotinylated HuCD80-MuIgG2a
Text: Individual clones were scored as putative CTLA4/CD80 interaction inhibiting if the presence of the periplasmic extract decreased the fluorescent signal of the acceptor beads.

[3] = molecular target: T2, cynomolgus monkey CTLA4 on stably transfected CHO-K1 cells (human CTLA4 cDNA with S13N, I17T and L105M) (human backbone with cynomolgus monkey …, UniProt P16410 36-223); test: FACS, direct binding titration on cyno CTLA4 CHO cells (head prints IC50)
T2 chain: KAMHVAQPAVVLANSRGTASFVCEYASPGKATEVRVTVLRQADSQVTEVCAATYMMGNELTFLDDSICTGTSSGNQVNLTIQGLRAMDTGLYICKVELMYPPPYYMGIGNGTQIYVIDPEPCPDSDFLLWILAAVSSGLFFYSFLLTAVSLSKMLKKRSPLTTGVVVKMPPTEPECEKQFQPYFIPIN

[4] = molecular target: T3, human CTLA4 (Y201 mutated to valine) on stably transfected CHO-K1 cells (human, UniProt P16410 36-223); test: competition FACS on human CTLA4 CHO cells; competitor HuCD80-HuIgG1 10 nM
T3 construct: whole, on cells; the mutation of the intracellular position Y201 keeps the protein on the membrane; also called human CTLA4 overexpressing CHO cells; human CTLA4 transfectant
Text: (§1) The potency of selected Nanobodies to inhibit the interaction of CTLA4 with CD80 was also ranked using FACS based screening method. […] This concentration was previously determined to be the minimal amount required to saturate all CD80 binding sites on both human and cyno CTLA4 expressing CHO cell clones in the absence of any CTLA4 interaction blocking proteins. […] Dead cells were stained by including TOPRO3 vital dye in the final resuspension buffer. All samples were read on a BD FACSarray instrument. Dead cells were excluded from the analysis by gating out TOPRO3 vital dye positive scoring cells.

[5] = molecular target: T3, human CTLA4 (Y201 mutated to valine) on …; test: FACS, direct binding titration on human CTLA4 CHO cells (head prints IC50)
[6] = molecular target: T1, HuCTLA4-HuIgG1 (fusion protein of the …); test: competition ELISA, CTLA4-hFc in solution; blocked ligand coated B7-1-muFc
Experimental: In order to determine B7-1 competition efficiency of CTLA4 binding Nanobodies, the purified clones were tested in an ELISA competition assay setup.

[7] = molecular target: T1, HuCTLA4-HuIgG1 (fusion protein of the …); test: as above; remark: listed apart in the source
[8] = molecular target: T1, HuCTLA4-HuIgG1 (fusion protein of the …); test: competition ELISA, CTLA4-hFc in solution; blocked ligand coated B7-2-muFc
[9] = molecular target: T3, human CTLA4 (Y201 mutated to valine) on …; test: FACS competition, human CTLA4 CHO cells; blocked ligand CD80-Fc
Text: as §1

[10] = molecular target: T4, human CD28 on Jurkat cells (human, UniProt P10747 19-220); test: FACS, Jurkat cells
T4 construct: whole, on cells; also called native form of the CD28 antigen; cell expressed CD28
Experimental: Binding of putative CD28 reactive Nanobodies clones was detected using unlabeled anti-c-myc tag mouse monoclonal antibody 9E10, followed by a phycoerythrin conjugated F(ab′)2 derived from goat-anti-mouse IgG (human and bovine crossabsorbed), and read on a BD FACSarray instrument. Dead cells were excluded from the analysis by gating out TOPRO3 vital dye positive scoring cells. Binding of the Nanobodies to cells was evaluated in BD FACSarray control software as PE channel histograms.

[11] = molecular target: T5, HuCD28-HuIgG1 (fusion protein of the extracellular part of human CD28 and human Fc gamma 1, R&D Systems Cat … (human, UniProt P10747 19-152; P01857 100-330 = IgG part); test: competition ELISA, periplasmic extract, CD28-hFc in solution; blocked ligand coated B7-1-muFc
T5 construct: extracellular domain;domain: Fc; bought; also called CD28-Ig; hCD28-Fc
Text: This mixture was applied on the coated B7-1 and CD28 was allowed to bind to the immobilized B7-1.

[12] = molecular target: T6, HuCD80-HuIgG1 (fusion protein of the extracellular part of human CD80 and human Fc gamma 1, R&D Systems Cat … (human, UniProt P33681 35-242)); test: SPR, Biacore 3000, antigen amine-coupled
T6 construct: extracellular domain; bought, produced in NS0 cells; also called CD80-IgG1; CD80-Ig; not shown: human Fc gamma 1
T6 sequence (looked up): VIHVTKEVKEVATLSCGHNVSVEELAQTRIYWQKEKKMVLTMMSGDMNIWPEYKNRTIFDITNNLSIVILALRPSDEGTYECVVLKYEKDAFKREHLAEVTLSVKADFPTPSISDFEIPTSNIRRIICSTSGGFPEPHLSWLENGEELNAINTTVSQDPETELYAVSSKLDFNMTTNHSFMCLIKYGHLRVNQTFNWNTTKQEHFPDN
Experimental: (§2) Affinity constants (Kd) of individual purified Nanobody clones were determined by surface plasmon resonance on a Biacore 3000 instrument. […] Remaining reactive groups were inactivated using ethanolamine. Nanobody binding was assessed at 1 and 0.1 microM. Each sample was injected for 4 min at a flow rate of 45 μl/min to allow for binding to chip-bound antigen. Next, binding buffer without Nanobody was sent over the chip at the same flow rate to allow for dissociation of bound Nanobody. After 2 min, remaining bound analyte was removed by injecting regeneration solution (50 mM NaOH or Glycine/HCl pH 1.5). Binding curves obtained at different concentrations of Nanobody were used to calculate Kd values.

[13] = molecular target: T7, HuCD86-HuIgG1 (fusion protein of the extracellular part of human CD86 and human Fc gamma 1, R&D Systems Cat … (human, UniProt P42081 24-247)); test: SPR, Biacore 3000, antigen amine-coupled
T7 construct: extracellular domain; bought; also called CD86-IgG1; CD86-Ig; not shown: human Fc gamma 1
T7 sequence (looked up): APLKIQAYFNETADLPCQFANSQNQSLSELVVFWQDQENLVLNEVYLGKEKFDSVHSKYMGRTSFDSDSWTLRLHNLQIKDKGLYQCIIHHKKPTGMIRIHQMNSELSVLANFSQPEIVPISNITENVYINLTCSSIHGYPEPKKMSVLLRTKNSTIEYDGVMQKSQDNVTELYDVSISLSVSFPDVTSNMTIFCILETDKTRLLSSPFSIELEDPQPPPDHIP
Experimental: as §2

[14] = molecular target: T8, HuCD80-MuIgG2a (extracellular (173aa) domain of human CD80 fused to murine IgG2a Fc+hinge (232 aa), Ancell … (human; mouse, UniProt P33681 35-242); test: competition ELISA, coated CD80-Ig; blocked ligand CD28-Ig
T8 construct: extracellular domain; bought, produced in CHO cells; also called B7-1-muFc; not shown: murine IgG2a Fc+hinge (232 aa)
T8 sequence (looked up): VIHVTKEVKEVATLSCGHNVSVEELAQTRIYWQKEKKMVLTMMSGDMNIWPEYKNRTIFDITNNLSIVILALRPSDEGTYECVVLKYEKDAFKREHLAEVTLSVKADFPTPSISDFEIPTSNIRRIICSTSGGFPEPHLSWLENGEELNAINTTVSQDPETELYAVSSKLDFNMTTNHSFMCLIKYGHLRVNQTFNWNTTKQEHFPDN
Experimental: Inhibition was determined based on OD values of controls having received no Nanobody (high control) or no CD28- or CTLA4-HuIgG1 fusion protein (low control).

[15] = molecular target: T9, HuCD86-MuIgG2a (fusion protein of the extracellular part of human CD86 and mouse Fc gamma 2a, Ancell Cat … (human; mouse, UniProt P42081 24-247; P01863 98-330 = IgG part); test: competition ELISA, coated CD86-Ig; blocked ligand CD28-Ig
T9 construct: extracellular domain;domain: Fc; bought; also called B7-2

[16] = molecular target: T10, rhB7-H2-Fc (fusion protein of the extracellular part of human B7-H2 (ICOSL) and mouse Fc gamma 1, R&D Systems … (human; mouse, UniProt O75144 19-256; P01868 98-324 = IgG part, limits assumed); test: competition ELISA, periplasmic extract, coated B7-H2; blocked ligand ICOS-biotin
T10 construct: extracellular domain;domain: Fc; bought; also called B7-H2 ectodomain
Experimental: Binding specificity was determined based on OD values compared to controls having received no Nanobody (high control).
After expression, the Nanobodies were purified via the His-tag on Talon beads.

B1: 4CTLAPMP11F1 (VHH)
VHH: EVQLVESGGGLVQAGGSLRLSCAASGGTFSFYGMGWFRQAPGKEQEFVADIRTSAGRTYYADSVKGRFTISRDNAKNTVYLQMNSLKPEDTAVYYCAAEMSGISGWDYWGQGTQVTVSS
notes: short label tied to the entry by the clone code only; also called 11F1 WT; not shown: C-terminal c-myc tag and His6 tag
Kd [1]: 10 nM
koff [1]: 0.0187 s⁻¹
kon [1]: 1.86e+06 M⁻¹ s⁻¹
IC50 [2]: 1.04 nM
IC50 [3]: 5.51 nM
IC50 [4]: 36.4 nM
IC50 [5]: 4.55 nM

B2: 65H7 (VHH)
VHH: EVQLVESGGGLVQPGGSLRLSCAASGSILSIAVAGWYRRQPGKERELVATISPGNNTHYVDSVKGRFTISRDNAKNTVYLQMTTLKPDDTAAYYCNAKGSILLNAFDYWGKGTQVTVSS
notes: Nanobody against CTLA4; also called 65H7 (4-1)
IC50 (read off the curve) [6]: ~100 nM
IC50 (read off the curve) [7]: ~100 nM
IC50 (read off the curve) [8]: ~200 nM

B4: 4CTLAPMP02F4 (VHH)
VHH: EVQLVESGGGLVQTGGSLRLSCAASGRTFSNYTMGWFRQAPGKDREFVAAISRSGALKAYADSVKGRFTPSRDNAKKMAYLQMNSLKPEDTAVYYCAAAPVPWGTRPSFFPYDSWGQGTQVTVSS
notes: short label tied to the entry by the clone code only; not shown: C-terminal c-myc tag and His6 tag
Kd [1]: 0.466 nM
koff [1]: 0.00266 s⁻¹
kon [1]: 5.69e+06 M⁻¹ s⁻¹
IC50 [2]: 0.827 nM
IC50 [3]: 2.36 nM
IC50 [4]: 11.4 nM
IC50 [5]: 2.38 nM
IC50 (read off the curve) [9]: ~10 nM

B6: CD8086PMP1E11 (VHH)
VHH: EVQLVESGGGLVQPGGSLRLSCAASGFTLDYSAIGWFRQAPGKEREGVSYISSSDGSTYYADSVEGRFTISRDNAKNTLYLQMNSLKPEDTAVYYCAAGGPFTVSTMPWLANYWGQGTQVTVSS
notes: not shown: C-terminal c-myc tag and His6 tag
Kd [12]: 23 nM
koff [12]: 0.0004 s⁻¹
kon [12]: 18000 M⁻¹ s⁻¹
Kd [13]: 553 nM
koff [13]: 0.002 s⁻¹
kon [13]: 3600 M⁻¹ s⁻¹
IC50 (read off the curve) [14]: ~400 nM
IC50 (read off the curve) [15]: ~10 nM

B8: 65D10 (VHH)
VHH: EVQLVESGGGLVQAGGSLRLSCAASGRTSSTATVGWFRQAPGKEREFVAVINWRSGFTYYADSVKGRFTISREYAKNTVYLQMDSLKPEDTAVYSCAADLGGRTLYGGIHYSPEEYAYWGQGTQVTVSS
notes: Nanobody against CTLA4; also called 65D10 (4-4)
IC50 (read off the curve) [6]: ~200 nM

Results, then the binder that gave them:

binding result [8]: binds
B3: 66B5 (VHH)
VHH: EVQLVESGGGLVQPGESLRLSCAASKSIFSISVMAWYRQAPGKQRELVARITPGGNTNYVDSVQGRFTISRDNAKNTVYLQMNSLKPEDTAVYYCNAQGSLLLAKYDYYGQGTQVTVSS
notes: Nanobody against CTLA4

binding result [10]: binds
binding result [11]: binds
B5: 65G2 (VHH)
VHH: EVQLVESGGGLVQPGGSLRLSCAASGFTLDAYAIHWFRQAPGKEREGVSCISSSDGSTYYANSVKGRFTISRDNAKNAVYLQMNSLKPEDTAVYYCATAKRCWGLSYEYDYWGQGTQVTVSS
notes: Nanobody against CD28

binding result [16]: binds
B7: 95G6 (VHH)
VHH: EVQLVESGGALVQPGGSLRLSCAASGFTLGDYVIGWFRQAPGKEREWVSGISSRDGTTYYADSVKGRFTISRDNAKNTMYLQMNSLKPEDTAVYYCALRSGIAVARAPSNYDYWGQGTQVTVSS
notes: Nanobody against B7-H2 (ICOSL)

Source: patent US20240182575A1 (Ablynx, published 2024)
